Data reported in the RNAGym collection of RNA variant scans (doi:10.1073/pnas.2313332121).
This sample holds only a part of the variants without activity.

B1: TPR 5TU (parent)
chain: GGAUCUUCUCGAUCUAACAAAAAAGACAAAUCUGCCACAAAGCUUGAGAGCAUCUUCGGAUGCAGAGGCGGCAGCCUUCGGUGGCGCGAUAGCGCCAACGUUCUCAACUAUGACACGCAAAACGCGUGCUCCGUUGAAUGGAGUUUAUCAUG

Variants of: B1
Experiment: polymerase ribozyme fitness, log enrichment relative to wild type (log ratio); higher = more active; in vitro selection for triplet polymerase activity
In short: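 Frozen incubation at −7 °C formed the core of a single, triplicate in vitro selection round applied to PCR-built, transcribed mutant libraries of each subunit of a heterodimeric triplet polymerase ribozyme. Extended constructs were gel-excised, captured with streptavidin beads and amplified by RT-PCR, and input and output libraries were Illumina-sequenced with a filter of ≥10 input reads and ≥1 read per output. Fitness is the logarithm of genotype enrichment relative to wild-type enrichment, with inverse-variance-weighted replicate averaging, and the logarithm is base 2.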

Variant	polymerase ribozyme fitness (log ratio)
GGAUCUUCUGGAUCUAACAAAAAAGACAAAUCUGCCACAAAGCUUGAGAGCAACUUCGGAUGCAGAGGCGGCAGCCUUCGGUUGCGCGAUUGCGCCGACGUUAUCAACUAUGACACGCAAAACGCGUGCUCCGUUGAAUGGAGUUUAUCAUG	≤ -4.2
GGAUCUUCUGGAUCUAACAAAAAAGACAAAUCUGCCACAAAGCUUUAGAGCAUCUUCGGAUGCAGAGGCGGCAGCCUUCGGUGGCGCGAUAGCGCCAACGUUCUCAACUAUGACACGCAAAACGCGUGCUCCGUUGAAUGGACUUUACCAUG	≤ -4.2
GGAUCUUCUGGAUCGAACAAAACAGACAAAUCUGCCACAAAGCUUGAGAGCAUCUUCGGAUCCAGAGGCGGCAGCCUUCGGUGGCGCGAUAGCGCCCACGUUCUCAACUAUGACACGCAAAACGUGUGCUCCGUUGAAUGGAGUUUAUCAUG	≤ -4.2
GGAUCUUCUGGAUCUAACAAAAAAGACAAAUCUGCCACAAAGCUUGAGAGCAUCUUCGGAUGCAGAGGCGGCAGCCUUCGGUGGCGCGAUACCGCCAACGUUCUCAACUAAGAAACGCAAAACGCGUGCUCCGUUGAAUGGAGUUUAUCAUG	≤ -4.2
GGAUCUUCUUGCUCUAACAAAAAAGACAAAUCUGCCACAAAGCUUGAGAGCAUAUUCGGAUGCAGAGGCGGCAGCCUUCGGUGGUGCGAUAGCGCCAACGUUCUCAAUUAUGACACGCAAAACGCGUGCUCCGUUGAAUGGAGUUUAUCAUG	≤ -4.2
GGAUCUUCUGGAUCUAACAAAAAAGACAAAUCUGCCACAAAGCUUGAGAGCAUCUUCGGAUGCAGAGGCGGCAGCCUUCGCUGGCGAGAUAGCGCCAACGUUCUCAACUAUGACACGCAAAACGCGCGCUCCGUUGAAUGGAGAUUAACAUG	≤ -4.2
GGAUCUUCUGGAUCUAACAAAAAAGACAAAUCUGCCACAAAGCUUGAGAGCAUCUUCGGAUGCAGAGGCGGCAGCCUGCGGUGGGGCGAUAGCGCCAACGUUCUCAACCAUGACACGCAAAACGCGUGCUCCGUUGAAUUGAGUUUAUCAUG	≤ -4.2
GGAUCUUCUGGAUCUAACAAAAAAGACAAAUCUGCCACAAAGCUUGAGAGCAUUUACGGAUUCAGAGGCGGCAGCCUUCGGUGGCGCGAUAGCACCAACGUUCUCAACUAUGACACGCAAAACGCGUGCUCCGUUGAAUGGAGUUUAUUAUG	≤ -4.2
GGAUCUUCUGGAUCUAACAAAAAAUACAAAUCUGCCACAAAGCUUGAGAGCAUCAUCGGAUGCAGAGGCGGCAGCCUUCGGUGGCGCAAUAGCGCCAACGUUCUCGACUAUGACACGCAAAACGCGUGCACCGUUGAAUGGAGUUUAUCGUG	≤ -4.2
GGAUCUUCUGGAUCUAACAAAAAAGACAAAUCUUCCACAAAGCUUGAGAGCAUCUUCGGAUGCAGAGGCGGCAGCCUUCGGUGGAGCGAUAGCGCCAACGUUCUCAACUAUGACACGCAAAACGCGUGCUCCGUUGAAUGGAGUUUAUCAUG	≤ -4.2
GGAUCUUCUGGACCUAACAAAAAAGACAAAUCUGCCACAAAGCUUGAGAGCAUCUUCGGAUGCAGAGGCGGCAGCCUUCGGUGGGGCGAUAGCGCCAACGUUCUCAACGAUGACUCGCAAAACGCGUGCUCCGUUGAAUUGAGUUUAUCAUG	≤ -4.2
GGAUCUUCUGGAUCUAACAAAAAAGACAAAUCUGCCACAAAGCGUGAGCGCCUCUUCGGAUGCCGAGGCGGCACCCUUCGGUGGCGCGAUAGCGCCAACGUUCGCAACUAUGACACGCAAAGCGCGUGCUCCGUUGAAUGAAGUUUAUCAUG	≤ -4.2
GGAUCUUCUGGAUCUAACAAAAAAGACAAAUCUGCCACAAAGCUUGAGAGCAUCUUCGGAUGCAGAGGCGGCAGCCUUCGGUGGCGCGAUAGCACCAACGUUCUCAACUAUGACACGCAAAACGCGUGCUCCGUUGAAUGGAGUUUAUCAUG	-3.44
GGAUCUUCUGGAUCUAACAAAAAAGACAAAUCUGCCACAAAGCUUGAGAGCAUCUUCGGAUGCAGAGACGGCAGCCUUGGGUGGCGCGAUAGCGCCAACGUUCUCAACUAUGACACGCAAAACGCGUGCUCCGUUGAAUGGAGUUUAUCAUG	≤ -4.2
GGAUCUUCUGGAUCUAACAAAAAAGACAAAUCUGCCACAAAGCUUGAGAGCAUCUUCACAUGCAAAGGCGGCAGCCUUCGGUGGCGCGAUAGCGGAAACGUUCUCAACUAUGACACGCACAACGCGUGCUCCGUUGAAUGGAGUUUAUCAUG	≤ -4.2
GGAUCUUCUGGAUCUAACAAAAAAGACAAAUCUGCCACAAAGCUUGAGAGCAUCGUCGGAUGCAGAGGCGGCAGCCUUCGGUGGCGCGAUAGCGCCAACGUUAUCAACUAUGACACGCAAAACGCGUGCUCCGUUGAAUGGAGUUUAUCAUG	≤ -4.2
GGAUCUUCUGGAGCUAACAAAAAAGACAAAUCUGCCACAAAGCUUGAGAGCAUCUUCGGAUGCAGAGGCGGCAGCCUUCGGUGGCGUGAUAGCGCCAACGUUCUCAACUAUGACACGCAAAACGUGUGCUCCGUUGAAUGGAGUUUAUCAUG	≤ -4.2
GGAUCUUCUGGAACUAACAAAAUAGACAAAUAUGCCACAAGGCUUGAGAGCAUCUUCGGAUGCAGAGGCGCCAGCCUUCGGUGGCGUGAUAGCGCCAACGUUCUUAACUAUGACUCGCAAAACGCGUGCUCCGUUGAAUGGAGUUUAUCAUG	≤ -4.2
GGAUCUUCUGGAUCUAACAAAAAAGACAAAUCUGCCACAAAGCUUGAGAGCAUCUAUGGAUGCAGAGGUGGCAGCCUUCGGUGGCGCGAUAGCGACAAUGUUCUCAAUUAUGACACGCAAUACGCGUGCUCCGUUGAAUGGAGUUUGUCAUG	≤ -4.2

Variant	polymerase ribozyme fitness (log ratio)
GGAUCUUCUGGAUCUAACAAAAAAGACAAAUCUGCCACAAAGCUUGAGAGCAUCUUCGGAUGCAGAGGCGGCAGCCUUCGGUGGCGCGAUAUCGCCAACGUUCUCAACUAUGACACGCAAAACGCGUGCUCCGUUGAAUGGAGUUUAUCAUG	-3.24
GGAUCUUCUGGAUCUAACAAAAAAGACAAAUCUGCCACAAAGCUUGAGAGCAUCUUCGGAUGCAGAGGCGGCAGCCUUCGGUGGCGCGAUACCGCCAACGUUCUCAACUAUGACACGCAAAACGCGUGCUCCGUUGAAUGGAGUUUAUCAUG	-3.61
GGAUCUUCUGGAUCUAACAAAAAAGACAAAUCUGCCACAAAGCUUGAGAGCAUUUUCGGAUCCAGAGGCGGCAGCCUUCGGUGGCUCGAUAGCGCCAACGUUCUCAACUAUGACACGCAAAACGCGUGCUCCGUUGAAUGGAGUUCAUCAUG	≤ -4.2
GGAUCUUCUGGAUCUAACAAAAAAGACAAAUCUGCCACAAAGCUUGAGAGCAUCAUCGGAUGCAGAGGGGGCAGCCUUCGGUGGCGCGAUAGUGCCAACGUUGUCAACUAUGACAAGCAAAACGCGUGCUCCGUUGAAUGGAGUUUAUCAUG	≤ -4.2
GGAUCUUCUGUAUCUAACAAAAAAGACAAAUAUGCCACAAAGCUUGAGAGUAUCUUCGGAUGCAGAGGCGGCAGUCUUCGGUGGCGCGAUAGUGACAACGUUCUCAACUAUGACACGCAAAACGCGUGCUCCGUUGAAUGGAGUUUAUCAUG	-4.16
GGAUCUUCUGGAUCUAACAAAAAAGACAAAUCUGCCACAAAUCUUGAGAGCAUCUUCAGAUGCAGAGGCGGCAGCCUUCGGUGGCUCGAUAGCGCCUACGGUCUCAACUAUGACACGCAAAACGCGUGCUCCGUUGAAUGCAGUUUAUCAUG	≤ -4.2
GGAUCUUCUGUAUCCAACAAAAAAGACAAAUCUGCCACAAAGCUUGAGAGCAUCUUCGGAUGCAGAGGCGGCAGCCUUCGGUGACGCUAUAGCGCCAACGUUCUCAACUAUGACACGCAAAACGCGUGCUCCGUUGAAUGGAGUUUAUCAUG	≤ -4.2
GGAUCUUCUGGAUCUAACAAAAAAGACAAAUCUGCCACAAAGCUUGAGAGCAUCUUCGGAUGCAGAGGCGGCAGCCUUCGGUGGUGCGAUCGCGCCAACGUUCUAAACUAUGACACGCAAAACGCGUGCUCCGUUGAAUGGAGUUUAUCAUG	≤ -4.2
GGAUCUUCUGGACCUAACAAAAAAGACAAAUCUGCCACAAAGCUUGAGAGCAUCUUCGGAUGCAGAGGCAGCAGCCUUCGGUGGCGCGAUAGCGCCAACGUUCUCAACUAGGACACGCAAAACGCGUGCUCCGUUGAAUGGAGUUUAACAUG	≤ -4.2
GGAUCUUCUGGAUCUAACAAAAAAGACAAAUCUGCCACAAAGCUUGAGAGCAUCUUCGGAUGCAGAGGCGGCAGCCAUCGGUGGCGCGAUAGUGCCAACGUUCUCAACUAUGACACGCAAAACGCGUGCUCCGUUGAAUGGAGGUUAUCAUG	≤ -4.2
GGAUCUUCUGGAUCUAACAAAAAAGACAAAUCAGCCACAAAGCUUGAGAGCAUCUUCGGAUGCAGAGGAGGCAGCCUUCGGUGGCGCGAUAGCGCGAACGUUCUCAACUAUGACACGCAAAACGCGUGCUCCGUUGAAUGGAGUUUAUCAUG	≤ -4.2
GGAUCUUCUGGAUCUAACAAAAAAGACAAAUCUGCCACAAAGCUUGAGAGCAUCUUCGGAUGCAGAGGCGGCAGCCUUCGGUGGCGCGAUAGCGCCAACGUUCUCAACCAUGACACGCAAAACGCGUGCUCCGUUGCAUGGAGUUUAUCAUG	≤ -4.2
GGAUCUUCUGGAUCUAACAAAAAAGACAAAACUGCCACAAAGCCUGAGAGCAUCUUAGUAGGCAGAGGCGGCAGCCUUCGGUGGCGCGAUACCGCCAACGUUCUCAUCUAUGACACGCAAAACGCGUGCUCCGUUGAAUGGAGUUUAUCAUG	≤ -4.2
GGAUCUUCUGGAUCUAACAAAAAAGACAAAUCUGCCACAAAGCUUGAGAGCACCUUCGGAUGCAGAGGCGGCAGCCUUCGGUGGCGCGAUAGUGCCAACGUUCUCAGCUAUGACACGCAAAACGCGUGCUCCGUUGAAUGGAGUUUAUCAUG	≤ -4.2
GGAUCUUCUGGAUCUAACAAAAAAGACAAAUCUGCCACAAAGCUUGAGAGCAACUUUGGAUGCAGAGGCGGCAGCCUUCGGUGGCCCGAUAGCGCCAACGUUCUCGAGUAUGGCACGCAAAACGCGGGCUCCGUUGAAUGGAGUUUAUCAUG	≤ -4.2
GGAUCUUCUGGAUCUAACAAAAAAGACAAAUCUGCCACAAAGCUUAAGAGCAUCAUCGGAUGCAAAGGCGGCGGCCUUCGGUGGCGCGAUAGCGCCAACGUUCUCAACUAUGACACGCAAAACGCGUGCUCCGAUGAAUGGAGUUUAUCAUG	≤ -4.2
GGAUCUUCUGGAUCUAACAAAAAAGACAAAUCGGCCACAAACCUUGAGAUCAUCUUCGGAUGCAGAGGCGGCACCCUUCGGUGGCGCGAUAGCGCCAACGUUCUCAACUAUGACACGCAAAACGCGUGCUCCGUUGAAUGGAGUUUAUCAUG	≤ -4.2
GGAUCUUCUGGAUCUAACAAAAAAGACAAAUCUGCCACAAAGCUUGAGAGCAUCUUCGGAUGCAGAGGCGGCAGCUUUCGGUGGCGCGAUAGCGCCAACGUUCUCAACUAUGACACGCAAAACGCGUGCUCCGUUGAAUGGAGUUUAUCAUG	-3.93
GGAUCUUCUGGAUCUAACAAAAAAGACAAAUCUGCCACAAAGCGUGAGAGCAUCUGUGGAUGCAGCGGCGGCAGCCUUCGGUGGCGUGAUAGCGCCAACGUUCUCGACUAUGACACGCAAAACGCGUGCUCCGUUGAAUGGUGUUUAUCAUG	≤ -4.2
